Results: patent publication US8859237B2, “Diguanylate cyclase method of producing the same and its use in the manufacture of cyclic-di-GMP and analogues thereof” (priority 2009, dated 2014)
Numbering of substitutions follows the chain as printed. Numbers in names are those of the source. Entries after “also recorded” stand apart in the source; their conditions may differ.

B1: R158A: tDGC diguanylate cyclase domain with I-site arginine 158 replaced by alanine (protein, listed as Thermotoga maritima)
chain: MGSSHHHHHHSSGLVPRGSHMKELEYMAYHDPLTGLPNRRYFFELGNRYLDLAKREGKKVFVLFVDLAGFKAINDTYGHLSGDEVLKTVSKRILDRVARSDVVARYGGDEFTILLYDMKEEYLKSLLERILSTFREPVRVENKHLSVTPNIGVARFPEDGENLEELLKVADMRMYKAKEMKVPYFSLS
modifications: DOMAIN (24)..(181) example of GGDEF domain
notes: tDGC diguanylate cyclase domain with I-site arginine 158 replaced by alanine
B2: R158Q: tDGC diguanylate cyclase domain with I-site arginine 158 replaced by glutamine (protein, listed as Thermotoga maritima)
chain: B1 chain with A98Q
modifications: DOMAIN (24)..(181) example of GGDEF domain
notes: tDGC diguanylate cyclase domain with I-site arginine 158 replaced by glutamine

Experiments:
[1] = test system: human colon carcinoma cells; conditions: basal and growth factor-induced; cited from earlier work
[2] = test system: Staphylococcus aureus; conditions: exogenous c-di-GMP; incl. methicillin-resistant strains; cited from earlier work
[3] = test system: S. aureus; conditions: murine mastitis infection; cited from earlier work
[4] = c-di-GMP binding at the I-site of tDGC (absorption spectrum 256 nm peak, HPLC of denatured protein); design: species or system Thermotoga maritima; conditions: purified protein, FIG. 1
Description: The observation was surprising since the synthesis of c-di-GMP from two molecules of GTP requires the DGC protein to function in its dimeric form.
However, despite the improved thermostability, we found the overall production yield was low even at high substrate concentration with prolonged incubation.

[5] = Diguanylate cyclase (DGC) activity assay and steady-state kinetic measurement (HPLC, GTP to c-di-GMP); type: biochemical, Thermotoga maritima
Description: Enzyme assays were conducted to determine the optimal salt concentration of the DGC reaction, with the buffer that contains 50 mM Tris-HCl (pH 8.0), 20 mM MgCl2, 100 μM GTP, 10 μM Enzyme, and 0-500 mM NaCl. Enzyme assays were conducted to determine the optimal pH concentration of the DGC reaction, with the buffer that contains 50 mM Tris-HCl (pH 7.0-9.0), 250 mM NaCl, 20 mM MgCl2, 100 μM GTP, 10 μM Enzyme. Reaction mixtures were incubated in a waterbath at 55° C. for 15 minutes. After heating at 95° C. for 10 min and centrifugation at 14,000 rpm for 5 min to remove protein precipitate, the supernatant was filtered before loading onto the Eclipse XDB-C18 (4.6×150 mm) column for monitoring the turnover from GTP to c-di-GMP using an Agilent LC1200 system (Mobile phase: 20 mM Triethylammonium bicarbonate (pH 7.0, pH adjusted using acetic acid), 9% Methanol, Flow rate: 1 mL/min). For thermostability analysis, the mutant protein was incubated at 45, 55 and 65° C., aliquots of protein solution were taken out at different time points to add into the reaction mixture that contains 50 mM Tris-Cl (pH 7.5), 250 mM NaCl, 20 mM MgCl2 and 100 μM GTP. The reaction was allowed to last for 10 min before being stopped and analyzed for GTP turnover by using HPLC. For product yield and steady state kinetic measurement, the standard reaction mixture include 50 mM Tris-Cl (pH 8), 20 mM MgCl2, 300 mM NaCl, 1 μM Enzyme, 5-800 μM GTP. Reactions were incubated at 55° C. for 1-60 minutes to obtain linear range of progress. For steady kinetics, data was fitted using GraphPad (Prism) to obtain the kinetic parameters.

[6] = Size-exclusion chromatography, oligomeric state in solution; type: physicochemical, Thermotoga maritima; conditions: Superdex 75, 4° C., FIG. 3
Description: Gel filtration was performed at 4° C. using the AKTA FPLC system equipped with a Superdex 75 HR 16/60 column (Amersham Biosciences). The buffer used for gel filtration is comprised of 50 mM Tris-Cl (pH 8.0), 300 mM NaCl, 5% Glycerol, 1 mM DTT. Fractions containing the recombinant protein were concentrated using Amicon concentrator (Millipore) to a final concentration of ca. 5 mg/ml as measured using Bradford assay. Concentrated proteins were stored in −80° C. degree after flash-freeze using liquid nitrogen. Mutant proteins were expressed, purified and stored following the same procedure. The molecular weight and oligomeric state of the protein was estimated based on the standard curve generated by using the standard proteins that include albumin, ovalbumin, chemotrypsinogen, RNase A. The final yield of the recombinant protein was 12-15 mg per liter culture for the wild type the mutant enzyme.

| Molecule | effect on cell proliferation [1] | effect on in vitro cell-cell interactions and biofilm formation [2] | effect on colonization and biofilm formation [3] | c-di-GMP binding / association with the protein [4] | NaCl concentration at which the enzyme is most efficient ([5]; 0-500 mM NaCl screened, 55° C., FIG. 4) | GTP concentration above which production yield decreased (substrate inhibition) ([5]; FIG. 2, 55° C.) | pH at which the enzyme is most efficient ([5]; pH 7.0-9.0 screened, 55° C., FIG. 4) | kcat of GTP condensation ([5]; steady-state kinetics, 55° C.) | GTP substrate turned over into c-di-GMP ([5]; under the assay conditions) | oligomeric form in solution [6] |
| --- | --- | --- | --- | --- | --- | --- | --- | --- | --- | --- |
| Nc1nc2c(ncn2[C@@H]2O[C@@H]3COP(=O)(O)O[C@H]4[C@@H](O)[C@H](n5cnc6c(=O)[nH]c(N)nc65)O[C@@H]4COP(=O)(O)O[C@H]3[C@H]2O)c(=O)[nH]1 [c-di-GMP, Bis-(3′-5′)-cyclic dimeric guanosine monophosphate] | inhibiting basal and growth factor-induced proliferation | reduce in vitro cell-cell interactions and biofilm formation | inhibit colonization and biofilm formation | – | – | – | – | – | – | – |
| B1 | – | – | – | c-di-GMP is no longer associated with the protein; also recorded: abolished the c-di-GMP binding capability | 250 to 300 mM | ca. 0.8 mM | 7.5 | 0.0433 s⁻¹ | ~100% | monomer |
| B2 | – | – | – | abolished the c-di-GMP binding capability | – | – | – | – | – | – |
